Laboratory results: the Human Domainome abundance scans (Beltran et al. 2025)
± gives the uncertainty stated by the source.

B1: Zinc finger protein ZIC 2, residues 250 to 295; numbered along this chain, O95409 (parent)
chain: QCIKQELICKWIDPEQLSNPKKSCNKTFSTMHELVTHVSVEHVGGP

Variants of: B1
Assay: abundance fitness (aPCA) (normalised: wild type 0, dead -1); higher = more abundant; growth selection in yeast, the domain comes from the species named
Conditions: Homo sapiens

Abundance fitness: each site, then its substitutions
P14: Y -0.499 ± 0.13
E15: A 0.077 ± 0.088; C -0.132 ± 0.11; D -0.254 ± 0.11; F -0.23 ± 0.11; G -0.145 ± 0.085; H -0.233 ± 0.11; I 0.051 ± 0.11; K 0.077 ± 0.11; L 0.104 ± 0.087; M -0.079 ± 0.1; P -0.388 ± 0.11; Q -0.406 ± 0.13; R -0.217 ± 0.085; S 0.018 ± 0.088; T -0.31 ± 0.1; V -0.137 ± 0.087; W -0.206 ± 0.094; Y -0.14 ± 0.12
Q16: A -0.144 ± 0.091; C -0.014 ± 0.11; D -0.074 ± 0.11; E -0.397 ± 0.1; F -0.376 ± 0.12; G -0.251 ± 0.086; H -0.077 ± 0.13; I -0.11 ± 0.1; K -0.335 ± 0.11; L 0.068 ± 0.087; M -0.25 ± 0.1; N -0.414 ± 0.14; P -0.285 ± 0.11; R -0.432 ± 0.088; S 0.073 ± 0.09; T -0.051 ± 0.1; V -0.302 ± 0.091; W -0.069 ± 0.097; Y -0.211 ± 0.12
L17: A 0.084 ± 0.092; C -0.245 ± 0.12; D 0.176 ± 0.12; E 0.306 ± 0.093; F 0.143 ± 0.11; G -0.363 ± 0.086; H -0.662 ± 0.15; I 0.067 ± 0.14; K -0.071 ± 0.1; N 0.124 ± 0.13; P 0.101 ± 0.097; Q -0.173 ± 0.1; R -0.304 ± 0.086; S -0.111 ± 0.09; T 0.035 ± 0.097; V 0.11 ± 0.087; W -0.623 ± 0.093; Y -0.564 ± 0.15
S18: A -0.348 ± 0.092; C -0.06 ± 0.1; D -0.125 ± 0.1; E -0.394 ± 0.11; F -0.15 ± 0.1; G -0.427 ± 0.088; H -0.389 ± 0.12; I -0.409 ± 0.12; K 0.282 ± 0.11; L -0.145 ± 0.088; M -0.348 ± 0.099; N 0.286 ± 0.12; P -0.171 ± 0.11; Q -0.36 ± 0.1; R -0.198 ± 0.085; T 0.118 ± 0.099; V -0.485 ± 0.092; W -0.265 ± 0.096; Y -0.317 ± 0.12
N19: A -0.131 ± 0.091; C -0.957 ± 0.12; D -0.092 ± 0.11; E -0.006 ± 0.093; F -0.166 ± 0.15; H 0.056 ± 0.13; I 0.164 ± 0.13; K -0.012 ± 0.1; L -0.17 ± 0.088; M -0.067 ± 0.099; P -0.104 ± 0.1; Q 0.132 ± 0.099; R -0.053 ± 0.085; S -0.079 ± 0.089; T 0.118 ± 0.099; V 0.007 ± 0.087; W -0.74 ± 0.1; Y -0.451 ± 0.13
P20: A -0.235 ± 0.094; C -0.832 ± 0.11; D 0.057 ± 0.12; E -0.046 ± 0.12; F -0.356 ± 0.12; H -0.883 ± 0.14; I -0.498 ± 0.13; K -0.233 ± 0.12; L -0.184 ± 0.092; M -0.076 ± 0.11; N -0.121 ± 0.12; Q -0.264 ± 0.11; R -0.416 ± 0.086; T -0.554 ± 0.11; V -0.111 ± 0.089; W -0.521 ± 0.096; Y -0.621 ± 0.15
K21: A -0.008 ± 0.09; C -0.673 ± 0.1; E 0.078 ± 0.1; F 0.01 ± 0.11; G -0.12 ± 0.086; H 0.016 ± 0.11; I -0.153 ± 0.099; L -0.091 ± 0.089; M -0.203 ± 0.13; N 0.314 ± 0.11; P 0.028 ± 0.1; Q 0.126 ± 0.12; R -0.302 ± 0.086; S -0.178 ± 0.09; T -0.168 ± 0.1; V -0.116 ± 0.089; W -0.102 ± 0.098; Y -0.095 ± 0.11
K22: A -0.175 ± 0.092; C -0.349 ± 0.11; D -0.035 ± 0.13; E -0.285 ± 0.11; F -0.332 ± 0.11; G -0.126 ± 0.088; H -0.006 ± 0.12; L -0.089 ± 0.086; M -0.126 ± 0.1; N 0.224 ± 0.12; P -0.095 ± 0.1; Q -0.166 ± 0.099; R 0.124 ± 0.086; S -0.102 ± 0.091; T -0.015 ± 0.1; V 0.037 ± 0.089; W -0.404 ± 0.096; Y -0.376 ± 0.15
S23: A 0.316 ± 0.09; C 0.029 ± 0.098; D -0.287 ± 0.11; E 0.002 ± 0.1; F 0.14 ± 0.13; G 0.111 ± 0.084; H 0.156 ± 0.12; I 0.095 ± 0.17; K 0.309 ± 0.11; L 0.282 ± 0.09; M 0.246 ± 0.098; P 0.043 ± 0.11; Q 0.226 ± 0.1; R 0.566 ± 0.084; T 0.193 ± 0.1; V 0.107 ± 0.091; W -0.01 ± 0.088; Y 0.079 ± 0.15
C24: A -0.836 ± 0.1; E -0.488 ± 0.099; F -1.05 ± 0.13
